This assay addresses T1, DSP_linker (Homo sapiens (Human), UniProt P15924).
T1 chain: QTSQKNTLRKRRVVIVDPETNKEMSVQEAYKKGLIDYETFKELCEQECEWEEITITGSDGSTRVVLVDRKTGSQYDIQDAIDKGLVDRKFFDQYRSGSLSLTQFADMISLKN
The assay can be described thus: MST.

Some results are limits rather than exact numbers.

B1: VIM_rod (protein)
chain 1: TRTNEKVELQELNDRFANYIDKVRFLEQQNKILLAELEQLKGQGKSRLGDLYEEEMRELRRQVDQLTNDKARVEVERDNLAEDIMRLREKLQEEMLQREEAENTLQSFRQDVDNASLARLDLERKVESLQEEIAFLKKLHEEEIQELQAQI
chain 2: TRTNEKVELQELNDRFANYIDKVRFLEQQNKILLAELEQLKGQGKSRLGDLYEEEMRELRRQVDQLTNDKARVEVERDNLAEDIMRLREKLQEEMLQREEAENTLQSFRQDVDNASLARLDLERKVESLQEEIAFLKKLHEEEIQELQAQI
As a reminder, the Kd is the constant that tells how readily two partners part at equilibrium. A higher Kd goes with weaker binding. On to B1, for which the Kd was > 800 µM.

(Values after PMC7035337 (2020).)
